Results: PMC8171064

Target: Saccharomyces cerevisiae Rsm22 protein, C-terminally His6-tagged (construct MA-S17–K628-HHHHHH) (S. cerevisiae) (UniProt P36056)
Assay: SEC-MALS; pooled and concentrated first SEC peak (higher oligomeric form); Superdex 200 10/300 GL; 40 mM Tris pH 7.5, 500 mM NaCl, 5% glycerol

stoichiometry N: 2
Substance: Saccharomyces cerevisiae Rsm22 protein, C-terminally His6-tagged (construct MA-S17–K628-HHHHHH) (from UniProt P36056 17-628) (enzyme)
